According to publication PMC11931990, “Interaction between bacterial phytochromes Agp1 and Agp2 of Agrobacterium fabrum by fluorescence resonance energy transfer and docking studies” (Febs Letters, 2025):

Tests used:
[1] = target: Agp2, full length wild-type A. fabrum phytochrome, labeled with Atto-495 (Agrobacterium fabrum); assay: FRET or BRET
[2] = target: Agp2-PCM, photosensory chromophore module of Agp2, labeled with Atto-495 (Agrobacterium fabrum); assay: FRET or BRET
Agp2 = target: T1, Agp2 (Agrobacterium fabrum, UniProt A9CI81); assay: UV/vis absorbance after chromophore assembly and desalting; format: binding; conditions: covalent (Cys13); threefold molar excess BV, 2 h, RT, pH 7.8, 1 mM TCEP; Atto-495 labelled afterwards
T1 construct: gene Atu2165; full length (PAS-GAF-PHY-histidine kinase-response regulator), C-terminal His6, E. coli DH5-alpha, pAg2 (pET21b-based), purified apoprotein, homodimer
T1 sequence (A9CI81 1-850): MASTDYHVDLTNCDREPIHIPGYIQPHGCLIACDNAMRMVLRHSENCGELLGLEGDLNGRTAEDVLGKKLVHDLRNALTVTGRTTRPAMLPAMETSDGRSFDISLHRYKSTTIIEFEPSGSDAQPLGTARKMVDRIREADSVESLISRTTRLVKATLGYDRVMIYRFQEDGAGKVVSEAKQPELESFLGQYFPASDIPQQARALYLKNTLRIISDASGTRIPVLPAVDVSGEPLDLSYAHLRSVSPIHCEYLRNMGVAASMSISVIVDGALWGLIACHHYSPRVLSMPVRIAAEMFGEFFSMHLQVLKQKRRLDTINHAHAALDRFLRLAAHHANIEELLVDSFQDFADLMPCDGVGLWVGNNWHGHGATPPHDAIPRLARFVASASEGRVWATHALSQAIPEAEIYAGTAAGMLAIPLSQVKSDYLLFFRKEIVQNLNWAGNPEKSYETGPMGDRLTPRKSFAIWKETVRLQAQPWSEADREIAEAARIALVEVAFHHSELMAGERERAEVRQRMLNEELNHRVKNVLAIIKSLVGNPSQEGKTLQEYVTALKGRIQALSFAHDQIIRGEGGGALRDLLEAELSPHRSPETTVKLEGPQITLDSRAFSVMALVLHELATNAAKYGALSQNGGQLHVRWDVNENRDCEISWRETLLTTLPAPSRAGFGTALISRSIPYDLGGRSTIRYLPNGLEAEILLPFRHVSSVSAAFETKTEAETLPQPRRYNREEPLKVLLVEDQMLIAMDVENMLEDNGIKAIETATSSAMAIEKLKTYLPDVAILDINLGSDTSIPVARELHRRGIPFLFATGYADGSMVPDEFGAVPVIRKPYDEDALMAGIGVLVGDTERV

Agp2-PCM = target: T2, Agp2-PCM (Agrobacterium fabrum, UniProt A9CI81); assay: as above; format: binding; conditions: covalent (Cys13); threefold molar excess BV, 2 h, RT, pH 7.8, 1 mM TCEP; Atto-495 labelled afterwards
T2 construct: gene Atu2165; photosensory chromophore module (PAS, GAF, PHY)
T2 sequence (A9CI81 1-501): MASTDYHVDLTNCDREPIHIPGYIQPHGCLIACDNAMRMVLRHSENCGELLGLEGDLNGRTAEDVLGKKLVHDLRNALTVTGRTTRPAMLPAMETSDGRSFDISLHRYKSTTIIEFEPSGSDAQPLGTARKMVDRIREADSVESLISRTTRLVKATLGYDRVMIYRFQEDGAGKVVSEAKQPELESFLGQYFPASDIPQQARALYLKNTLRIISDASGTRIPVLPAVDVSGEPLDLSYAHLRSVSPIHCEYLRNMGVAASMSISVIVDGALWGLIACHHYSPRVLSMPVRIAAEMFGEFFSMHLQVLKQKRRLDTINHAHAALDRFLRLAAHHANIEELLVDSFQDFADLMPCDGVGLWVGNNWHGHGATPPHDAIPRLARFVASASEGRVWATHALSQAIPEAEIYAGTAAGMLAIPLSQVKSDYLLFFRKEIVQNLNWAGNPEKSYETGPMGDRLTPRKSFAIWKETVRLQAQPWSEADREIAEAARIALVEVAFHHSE
Excerpt: UV/vis absorbance after chromophore assembly and desalting on Agp2-PCM

Row | Compound | E FRET (FRET transfer efficiency) [1] | other results
1 | Agp1 K517C, full-length A. fabrum phytochrome Agp1 mutant labeled with Atto-565 (natural protein) | 0.15 | E FRET (FRET transfer efficiency) [2]: 0.14
2 | Agp1 K554C, full-length A. fabrum phytochrome Agp1 mutant labeled with Atto-565 (natural protein) | 0.28 | –
3 | Agp1 R535C, full-length A. fabrum phytochrome Agp1 mutant labeled with Atto-565 (natural protein) | 0.21 | –
4 | C=CC1=C(C)/C(=C/C2=NC(=C\c3[nH]c(/C=C4\NC(=O)C(C)=C4C=C)c(C)c3CCC(=O)O)/C(CCC(=O)O)=C2C)NC1=O [Biliverdin] | – | Agp2 (Agp2): 0.70 ± 0.04 mol/mol; Agp2 PCM (Agp2-PCM): 0.98 ± 0.01 mol/mol
5 | Agp1 S122C, full-length A. fabrum phytochrome Agp1 mutant labeled with Atto-565 (natural protein) | 0.09 | –
6 | Agp1 A362C, full-length A. fabrum phytochrome Agp1 mutant labeled with Atto-565 (natural protein) | 0.1 | –
7 | Agp1 R603C, full-length A. fabrum phytochrome Agp1 mutant labeled with Atto-565 (natural protein) | 0.2 | –
